The source of these data is US20150250848A1 (TRUSTEES OF DARTMOUTH COLLEGE, published 2015).

Where no end group is shown, it is not given here. [ ]: non-standard residue; d: D form. The star is where a group is joined. Biotin = O=C1N[C@H]2[C@H](CS[C@H]2CCCCC(=O)*)N1; Ahx = NCCCCCC(=O)O

Assay [1] deals with T1, CAL PDZ domain (CALP) (UniProt Q9HD26 278-362). Put plainly: fluorescence polarization competition. (Fluorescence polarisation rises when a labelled molecule tumbles more slowly, as on binding a larger partner.)
Assay [2] has as its target T1, CAL PDZ domain (CALP). Nature of the assay: calculated from Ki values (FP); reference: the same peptide with the NHERF PDZ domains.
The target of assay [3] is T1, CAL PDZ domain (CALP). Nature of the assay: calculated from Ki values (FP); reference: the same peptide with TIP-1.
Assay [4] has as its target T1, CAL PDZ domain (CALP). Nature of the assay: FP competition assay.
The target in assay [5] is T1, CAL PDZ domain (CALP). Nature of the assay: fluorescence polarization; reference: iCAL42 with the CAL PDZ domain.
Assay [6] has as its target T2, Tax-interacting protein-1 (TIP-1), recombinant, tag cleaved (UniProt O14907 1-124).
T2 construct: Used for FP and crystallization; also called TIP-1 PDZ domain
T2 sequence (looked up): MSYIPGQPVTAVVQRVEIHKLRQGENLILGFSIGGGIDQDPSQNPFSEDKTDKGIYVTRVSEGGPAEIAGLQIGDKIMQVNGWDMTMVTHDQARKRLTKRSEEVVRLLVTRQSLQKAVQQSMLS
Put plainly: FP displacement assay. Here is the method: (§1) For TIP-1 peptide array experiments, His₁₀ tagged (uncleaved) protein was used to facilitate quantitation.
In order to quantitate the impact of the P⁻⁵ Leu substitution and to assess inhibitory potential at high peptide concentrations, FP displacement assays were performed.

Assay [7] has as its target T3, His10 tagged (uncleaved) TIP-1 (UniProt O14907 1-124).
T3 construct: also called TIP-1 (peptide array experiments); not shown: N-terminal His10 tag
T3 sequence: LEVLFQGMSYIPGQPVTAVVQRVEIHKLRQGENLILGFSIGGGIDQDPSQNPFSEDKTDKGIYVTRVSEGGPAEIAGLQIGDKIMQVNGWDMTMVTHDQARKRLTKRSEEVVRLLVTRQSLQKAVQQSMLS
Nature of the assay: CombLib peptide array.
Text: as §1

Assay [8] has as its target T1, CAL PDZ domain (CALP). Put plainly: calculated from Ki values (FP); reference: the same peptide with the highest affinity alternative among the NHERF and TIP-1 PDZ domains.
Assay [9] concerns the target T1, CAL PDZ domain (CALP). Nature of the assay: calculated from Ki values (FP); reference: the same peptide with N2P2.
The target of assay [10] is T2, Tax-interacting protein-1 (TIP-1), …. Nature of the assay: FP displacement assay, reporter F*-iCAL36.
Assay [11] has as its target T1, CAL PDZ domain (CALP). Nature of the assay: fluorescence polarization competition; reference: iCAL35 with CAL. As for the experimental part:
(§2) The experimental inhibitory constants of top- and poorly-ranked peptide sequences from the K* CAL-CFTR design were experimentally determined. […] The corresponding N-terminally acetylated peptides were purchased from NEO Bio-Science (Cambridge, Mass.) and the Kᵢ values for the peptides were detected using fluorescence polarization. Briefly, the CAL PDZ domain was incubated with a labeled peptide of known binding affinity. Each peptide inhibitor was serially diluted and the protein-peptide mixture was added to each dilution. Finally, the amount of competitive inhibition was tracked using residual fluorescence polarization.
(§3) The Kᵢ value for each peptide hexamer was determined using fluorescence polarization.

Assay [12] has as its target T1, CAL PDZ domain (CALP). Put plainly: fluorescence polarization competition with a labeled peptide. Here is the method:
as §2, §3

Assay [13] concerns the target T1, CAL PDZ domain (CALP). Put plainly: fluorescence polarization competition; reference: wild-type CFTR sequence with CAL. As for the experimental part: as §2, §3

B1: iCAL35 (peptide)
peptide: Ac-WQTSII
notes: the corresponding N-terminally acetylated peptides were bought; also called WQTSII; best known peptide hexamer
In general, Ki refers to the equilibrium dissociation constant of an inhibitor or competing ligand from its target. As for B1, in assay [1], the Ki amounted to 14.8 µM.

B2: iCAL36 (peptide)
peptide: ANSRWPTSII
notes: also called PRC 36; iCa136
Consider B2, for which the ΔΔG was -3.3 kcal/mol in assay [2] and 1 kcal/mol in assay [3].

B3: BT-iCAL42 (peptide)
peptide: Biotin-W[dR]FKKANSRLPTSII
notes: also called biotinylated analog of iCAL42
Turning to B3, the affinity in assay [4] corresponds to a Ki of 9.2 µM.

B4: F*-iCAL42 (peptide)
peptide: {Fluorescein-Ahx}-ANSRLPTSII
notes: also called N-terminally fluoresceinated version of iCAL42
B4: the “fold enhancement in CAL affinity” value in [5] was 5 fold.

B5: P^-5 alanine mutant of iCAL36 (ANSRAPTSII) (peptide)
peptide: ANSRAPTSII
Turning to B5, the binding result in [6] is given as “no binding”.

B6: iCAL42 (peptide)
peptide: ANSRLPTSII
notes: also called unlabeled iCAL42
On to B6, for which the binding result in assay [6] was “no binding (tested: up to millimolar peptide concentrations)”; in [7], “no binding”. Also, the ΔΔG in assay [8] is -2.5 kcal/mol.

B7: somatostatin receptor subtype 5 (SSR5) C-terminal peptide (peptide)
peptide: ANGLMQTSKL
On to B7, for which, in assay [9], the ΔΔGCAL-best is 0.1 kcal/mol. Also, the Ki in assay [10] was 130 µM.

B8: kCAL01 (peptide)
peptide: Ac-WQVTRV
notes: also called WQVTRV
With B8, in [11], the “fold improvement over iCAL35” value was 7 fold. The molecule further showed a Ki in [12] of 2.1 µM. For the same molecule, in assay [13], the fold higher affinity was found to be 331 fold.
